Test results taken from paper PMC4487810.

Substrate: O=P(O)(O)CCO
Experiment: purified protein
Conditions: O2 co-substrate
[1] = enzyme saturated with Fe(II) (more than 1 equivalent)

Row | Protein | Km (Fe(II)) [µM] | kcat (Fe(II)) [s⁻¹] | Km (Fe(II), labelled compound) [µM] | kcat (Fe(II), labelled compound) [s⁻¹] | Km [1] [µM] | kcat [1] [s⁻¹]
1 | 2-hydroxyethylphosphonate dioxygenase (HEPD) (Streptomyces viridochromogenes DSM 40736) (protein) MRIDPFKLAHWMNARKYTAAQTADLAGLPLDDLRRLLGDEANEPDPAAATALAEALSVEPSQLAADAHRNLTVVHKSAEEMHASRRPIQRDGIHFYNYYTLAAPEGRVAPVVLDILCPSDRLPALNNGHLEPAITVNLGPGDINGRWGEEITPQTWRVLHANHGGDRWITGDSYVEPSYCPHSYSLAGDAPARIVSYTAQSNISPLMTEANNWSTGAFEEALKALSGKVSAGSVLDLFLARRAHTRTSAAEAAGVPPADLEAALRSPASETGLTVLRTLGRALGFDYRVLLPADDQHDGVGKTWTTIEDSRRSRRTFGTYEAASMASAAHLPDLVGSFLRVDADGRGADLIDHAENHYVVTEGRLTLEWDGPDGPASVELEPDGSAWTGPFVRHRWHGTGTVLKFGSGAHLGYQDWLELTNTFEPAATLRRGRRDLAGWGYDN | 8 ± 1 | 0.3 ± 0.01 | 10 ± 2 | 0.31 ± 0.01 | – | –
2 | 2-hydroxyethylphosphonate dioxygenase (HEPD) (Streptomyces viridochromogenes DSM 40736; E176H) (protein) MRIDPFKLAHWMNARKYTAAQTADLAGLPLDDLRRLLGDEANEPDPAAATALAEALSVEPSQLAADAHRNLTVVHKSAEEMHASRRPIQRDGIHFYNYYTLAAPEGRVAPVVLDILCPSDRLPALNNGHLEPAITVNLGPGDINGRWGEEITPQTWRVLHANHGGDRWITGDSYVHPSYCPHSYSLAGDAPARIVSYTAQSNISPLMTEANNWSTGAFEEALKALSGKVSAGSVLDLFLARRAHTRTSAAEAAGVPPADLEAALRSPASETGLTVLRTLGRALGFDYRVLLPADDQHDGVGKTWTTIEDSRRSRRTFGTYEAASMASAAHLPDLVGSFLRVDADGRGADLIDHAENHYVVTEGRLTLEWDGPDGPASVELEPDGSAWTGPFVRHRWHGTGTVLKFGSGAHLGYQDWLELTNTFEPAATLRRGRRDLAGWGYDN | – | – | – | – | 23 ± 3 | 0.38 ± 0.01
